How the values were obtained:
gemi_human GMNN [1] = molecular target: gemi_human GMNN (UniProt O75496)
gemi_human GMNN [2] = molecular target: gemi_human GMNN (UniProt O75496); remark: listed apart in the source

gemi_human GMNN, sequence (O75496 whole entry): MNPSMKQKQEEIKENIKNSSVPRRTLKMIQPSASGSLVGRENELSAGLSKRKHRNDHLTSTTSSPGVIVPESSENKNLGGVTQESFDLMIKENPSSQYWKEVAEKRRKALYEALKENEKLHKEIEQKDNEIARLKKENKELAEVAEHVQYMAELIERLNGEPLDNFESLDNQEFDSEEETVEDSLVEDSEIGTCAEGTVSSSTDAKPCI
Paired box protein Pax-6 (Homo sapiens), P26367 A252R;A263M, sequence (P26367 whole entry A252R/A263M): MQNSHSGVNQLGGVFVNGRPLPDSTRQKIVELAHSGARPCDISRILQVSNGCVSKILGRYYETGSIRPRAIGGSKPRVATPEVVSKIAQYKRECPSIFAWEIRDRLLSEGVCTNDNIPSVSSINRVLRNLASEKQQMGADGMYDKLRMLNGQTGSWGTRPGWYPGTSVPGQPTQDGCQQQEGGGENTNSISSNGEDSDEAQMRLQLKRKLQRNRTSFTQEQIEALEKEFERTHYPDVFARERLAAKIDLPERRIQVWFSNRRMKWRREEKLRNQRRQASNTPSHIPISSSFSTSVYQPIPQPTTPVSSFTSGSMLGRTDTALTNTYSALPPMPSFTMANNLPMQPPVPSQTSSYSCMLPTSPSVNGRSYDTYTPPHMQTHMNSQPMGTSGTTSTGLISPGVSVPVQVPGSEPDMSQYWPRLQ
Homeobox protein Hox-C9 (Homo sapiens), P31274 R234A;M245A, sequence (P31274 whole entry R234A/M245A): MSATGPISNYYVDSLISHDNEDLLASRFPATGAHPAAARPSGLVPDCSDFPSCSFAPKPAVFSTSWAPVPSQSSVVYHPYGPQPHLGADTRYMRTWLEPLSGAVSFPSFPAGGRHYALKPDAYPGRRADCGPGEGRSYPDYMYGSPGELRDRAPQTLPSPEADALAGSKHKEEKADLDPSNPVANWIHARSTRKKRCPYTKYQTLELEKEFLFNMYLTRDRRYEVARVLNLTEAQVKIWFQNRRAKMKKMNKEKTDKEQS
Homeobox protein Hox-C9 (Homo sapiens), P31274 R193A;K194A;K195A;R196A, sequence (P31274 whole entry R193A/K194A/K195A/R196A): as the sequence (P31274 whole entry R234A/M245A) above, with R193A, K194A, K195A, R196A, A234R, A245M counted along it

| effect of a mutation on the interaction (gemi_human GMNN [1]) | effect of a mutation on the interaction (gemi_human GMNN [2]) | Substance |
| --- | --- | --- |
| decreasing interaction strength | – | Homeobox protein Hox-C9 (Homo sapiens), P31274 R193A;K194A;K195A;R196A |
| decreasing interaction strength | – | Homeobox protein Hox-C9 (Homo sapiens), P31274 R234A;M245A |
| – | increasing interaction strength | Paired box protein Pax-6 (Homo sapiens), P26367 A252R;A263M |

Reference: IntAct's records for PubMed 22615398
